This experiment relates to HEK293FT cells transfected with TF library. Briefly: Screening of TF condensates based on fluorescent puncta. In kind it is cell-based. As to conditions: Figure 1B numerical data; TF library screen, one value per transcriptional factor. The method in brief:
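HEK293FT cells were reverse-transfected with Flag- or GAL4-tagged TF plasmids (1.6 μg/ml, PEI). After 60 h, cells were cultured 12 h with or without glucose, then fixed and immunostained with anti-Flag or anti-GAL4 and Alexa 488 secondaries. Fluorescent puncta were imaged over fifty random fields per well by high-content imaging.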

B1: TOX2 (protein, UniProt Q96NM4 1-488, looked up)
TOX high mobility group box …: MQQTRTEAVAGAFSRCLGFCGMRLGLLLLARHWCIAGVFPQKFDGDSAYVGMSDGNPELLSTSQTYNGQSENNEDYEIPPITPPNLPEPSLLHLGDHEASYHSLCHGLTPNGLLPAYSYQAMDLPAIMVSNMLAQDSHLLSGQLPTIQEMVHSEVAAYDSGRPGPLLGRPAMLASHMSALSQSQLISQMGIRSSIAHSSPSPPGSKSATPSPSSSTQEEESEVHFKISGEKRPSADPGKKAKNPKKKKKKDPNEPQKPVSAYALFFRDTQAAIKGQNPSATFGDVSKIVASMWDSLGEEQKQSSPDQGETKSTQANPPAKMLPPKQPMYAMPGLASFLTPSDLQAFRSGASPASLARTLGSKSLLPGLSASPPPPPSFPLSPTLHQQLSLPPHAQGALLSPPVSMSPAPQPPVLPTPMALQVQLAMSPSPPGPQDFPHISEFPSSSGSCSPGPSNPTSSGDWDSSYPSGECGISTCSLLPRDKSLYLT
Regarding B1, the “Z score of condensed fraction” value is 2.501.

B2: BNC2 (protein, UniProt Q6ZN30 1-1099, looked up)
Zinc finger protein …: MAHLGPTPPPHSLNYKSEDRLSEQDWPAYFKVPCCGVDTSQIESEEAEVDVRERETQRDREPKRARDLTLRDSCTDNSMQFGTRTTTAEPGFMGTWQNADTNLLFRMSQQAIRCTLVNCTCECFQPGKINLRTCDQCKHGWVAHALDKLSTQHLYHPTQVEIVQSNVVFDISSLMLYGTQAVPVRLKILLDRLFSVLKQEEVLHILHGLGWTLRDYVRGYILQDAAGKVLDRWAIMSREEEIITLQQFLRFGETKSIVELMAIQEKEGQAVAVPSSKTDSDIRTFIESNNRTRSPSLLAHLENSNPSSIHHFENIPNSLAFLLPFQYINPVSAPLLGLPPNGLLLEQPGLRLREPSLSTQNEYNESSESEVSPTPYKNDQTPNRNALTSITNVEPKTEPACVSPIQNSAPVSDLTKTEHPKSSFRIHRMRRMGSASRKGRVFCNACGKTFYDKGTLKIHYNAVHLKIKHRCTIEGCNMVFSSLRSRNRHSANPNPRLHMPMLRNNRDKDLIRATSGAATPVIASTKSNLALTSPGRPPMGFTTPPLDPVLQNPLPSQLVFSGLKTVQPVPPFYRSLLTPGEMVSPPTSLPTSPIIPTSGTIEQHPPPPSEPVVPAVMMATHEPSADLAPKKKPRKSSMPVKIEKEIIDTADEFDDEDDDPNDGGAVVNDMSHDNHCHSQEEMSPGMSVKDFSKHNRTRCISRTEIRRADSMTSEDQEPERDYENESESSEPKLGEESMEGDEHIHSEVSEKVLMNSERPDENHSEPSHQDVIKVKEEFTDPTYDMFYMSQYGLYNGGGASMAALHESFTSSLNYGSPQKFSPEGDLCSSPDPKICYVCKKSFKSSYSVKLHYRNVHLKEMHVCTVAGCNAAFPSRRSRDRHSANINLHRKLLTKELDDMGLDSSQPSLSKDLRDEFLVKIYGAQHPMGLDVREDASSPAGTEDSHLNGYGRGMAEDYMVLDLSTTSSLQSSSSIHSSRESDAGSDEGILLDDIDGASDSGESAHKAEAPALPGSLGAEVSGSLMFSSLSGSNGGIMCNICHKMYSNKGTLRVHYKTVHLREMHKCKVPGCNMMFSSVRSRNRHSQNPNLHKNIPFTSVD
In the case of B2, the “Z score of condensed fraction” value is recorded as -0.9038.

B3: TOX (protein, UniProt O94900 1-526, looked up)
Thymocyte …: MDVRFYPPPAQPAAAPDAPCLGPSPCLDPYYCNKFDGENMYMSMTEPSQDYVPASQSYPGPSLESEDFNIPPITPPSLPDHSLVHLNEVESGYHSLCHPMNHNGLLPFHPQNMDLPEITVSNMLGQDGTLLSNSISVMPDIRNPEGTQYSSHPQMAAMRPRGQPADIRQQPGMMPHGQLTTINQSQLSAQLGLNMGGSNVPHNSPSPPGSKSATPSPSSSVHEDEGDDTSKINGGEKRPASDMGKKPKTPKKKKKKDPNEPQKPVSAYALFFRDTQAAIKGQNPNATFGEVSKIVASMWDGLGEEQKQVYKKKTEAAKKEYLKQLAAYRASLVSKSYSEPVDVKTSQPPQLINSKPSVFHGPSQAHSALYLSSHYHQQPGMNPHLTAMHPSLPRNIAPKPNNQMPVTVSIANMAVSPPPPLQISPPLHQHLNMQQHQPLTMQQPLGNQLPMQVQSALHSPTMQQGFTLQPDYQTIINPTSTAAQVVTQAMEYVRSGCRNPPPQPVDWNNDYCSSGGMQRDKALYLT
Take B3: the “Z score of condensed fraction” value is -0.4918.

B4: TRIB3 (protein, UniProt Q96RU7 1-358, looked up)
Tribbles homolog 3: MRATPLAAPAGSLSRKKRLELDDNLDTERPVQKRARSGPQPRLPPCLLPLSPPTAPDRATAVATASRLGPYVLLEPEEGGRAYQALHCPTGTEYTCKVYPVQEALAVLEPYARLPPHKHVARPTEVLAGTQLLYAFFTRTHGDMHSLVRSRHRIPEPEAAVLFRQMATALAHCHQHGLVLRDLKLCRFVFADRERKKLVLENLEDSCVLTGPDDSLWDKHACPAYVGPEILSSRASYSGKAADVWSLGVALFTMLAGHYPFQDSEPVLLFGKIRRGAYALPAGLSAPARCLVRCLLRREPAERLTATGILLHPWLRQDPMPLAPTRSHLWEAAQVVPDGLGLDEAREEEGDREVVLYG
On to B4, for which the “Z score of condensed fraction” value is on record as -0.9785.

B5: TRIM32 (protein, UniProt Q8CH72 1-655, looked up)
E3 ubiquitin-protein ligase …: MAAAAAASHLNLDALREVLECPICMESFTEEQLRPKLLHCGHTICRQCLEKLLASSINGVRCPFCSKITRITSLTQLTDNLTVLKIIDTAGLSEAVGLLMCRGCGRRLPRQFCRSCGVVLCEPCREADHQPPGHCTLPVKEAAEERRRDFGEKLTRLRELTGELQRRKAALEGVSRDLQARYKAVLQEYGHEERRIQEELARSRKFFTGSLAEVEKSNSQVVEEQSYLLNIAEVQAVSRCDYFLAKIKQADVALLEETADEEEPELTASLPRELTLQDVELLKVGHVGPLQIGQAVKKPRTVNMEDSWAGEEGAASSASASVTFREMDMSPEEVAPSPRASPAKQRSSEAASGIQQCLFLKKMGAKGSTPGMFNLPVSLYVTSQSEVLVADRGNYRIQVFNRKGFLKEIRRSPSGIDSFVLSFLGADLPNLTPLSVAMNCHGLIGVTDSYDNSLKVYTMDGHCVACHRSQLSKPWGITALPSGQFVVTDVEGGKLWCFTVDRGAGVVKYSCLCSAVRPKFVTCDAEGTVYFTQGLGLNVENRQNEHHLEGGFSIGSVGPDGQLGRQISHFFSENEDFRCIAGMCVDARGDLIVADSSRKEILHFPKGGGYSVLIREGLTCPVGIALTPKGQLLVLDCWDHCVKIYSYHLRRYSTP
For B5, the “Z score of condensed fraction” value is reported as -0.9694.

B6: TRERF1 (protein, UniProt Q96PN7 1-1200, looked up)
Transcriptional-regulating …: MGDQQLYKTNHVAHGSENLFYQQPPLGVHSGLNHNYGNAVTGGGMDAPQASPISPHFPQDTRDGLGLPVGSKNLGQMDTSRQGGWGSHAGPGNHVQLRGNLANSNMMWGAPAQAEPTDGYQYTYSQASEIRTQKLTSGVLHKLDSFTQVFANQNLRIQVNNMAQVLHTQSAVMDGAPDSALRQLLSQKPMEPPAPAIPSRYQQVPQQPHPGFTGGLSKPALQVGQHPTQGHLYYDYQQPLAQVPVQGGQPLQAPQMLSQHMQQMQQHQYYPPQQQQQAGQQRISMQEIQTQPQQIRPSQPQPPPQQQQPQQLQLQQRQGSMQIPQYYQPQPMMQHLQEQQQQQMHLQPPSYHRDPHQYTPEQAHTVQLIPLGSMSQYYYQEPQQPYSHPLYQQSHLSQHQQREDSQLKTYSSDRQAQAMLSSHGDLGPPDTGMGDPASSDLTRVSSTLPHRPLLSPSGIHLNNMGPQHQQLSPSAMWPQMHLPDGRAQPGSPESSGQPKGAFGEQFDAKNKLTCSICLKEFKNLPALNGHMRSHGGMRASPNLKQEEGEKVLPPQPQPPLPPPPPPPPPPQLPPEAESLTPMVMPVSVPVKLLPPKPSSQGFTNSTVAAPSARDKPASSMSDDEMPVLEIPRKHQPSVPKAEEPLKTVQEKKKFRHRPEPLFIPPPPSYNPNPAASYSGATLYQSQLRSPRVLGDHLLLDPTHELPPYTPPPMLSPVRQGSGLFSNVLISGHGPGAHPQLPLTPLTPTPRVLLCRSNSIDGSNVTVTPGPGEQTVDVEPRINIGLRFQAEIPELQDISALAQDTHKATLVWKPWPELENHDLQQRVENLLNLCCSSALPGGGTNSEFALHSLFEAKGDVMVALEMLLLRKPVRLKCHPLANYHYAGSDKWTSLERKLFNKALATYSKDFIFVQKMVKSKTVAQCVEYYYTWKKIMRLGRKHRTRLAEIIDDCVTSEEEEELEEEEEEDPEEDRKSTKEEESEVPKSPEPPPVPVLAPTEGPPLQALGQPSGSFICEMPNCGAVFSSRQALNGHARIHGGTNQVTKARGAIPSGKQKPGGTQSGYCSVKSSPSHSTTSGETDPTTIFPCKECGKVFFKIKSRNAHMKTHRQQEEQQRQKAQKAAFAAEMAATIERTTGPVGAPGLLPLDQLSLIKPIKDVDILDDDVVQQLGGVMEEAEVVDTDLLLDDQDSVLLQGDAEL
Consider B6, for which the “Z score of condensed fraction” value is given as -0.901.

The record behind these values is publication PMC11574045, “A cofactor-induced repressive type of transcription factor condensation can be induced by synthetic peptides to suppress tumorigenesis” (The EMBO Journal, 2024).
